What was measured:
Test in all cases: ELISA, variant from culture supernatant on Ni-NTA plate
[1] = target: T1, 391-2-DS-Cav1-sc9 100C-361C
T1 construct: also called DS2-v19
Description: (§1) Initial assessment of all constructs were performed using a 96-well microplate format for high throughput expression followed by an ELISA-based antigenic evaluation as described previously 17. […] Plasmid DNA and TrueFect-Max (United BioSystems, MD) were mixed and added to the growing cells, and the 96-well plate incubated at 37° C., 5% CO2. One day post transfection, enriched medium (high glucose DMEM plus 25% ultra-low IgG fetal bovine serum, 2× nonessential amino acids, 1× glutamine) was added to each well, and the 96-well plate was returned to the incubator for continuous culture.

[2] = target: T2, RB94 sc9 DS-CAV1 N183GC-N428C L373R Long S190V
T2 construct: also called DS2-v13
Description: as §1

[3] = target: T3, 391-2-DS-Cav1-sc9deleteFS 100C-362C
T3 construct: also called DS2-v21
Description: as §1

[4] = target: T4, RB94 dscav1T369C-T455C Long S190V
T4 construct: also called DS2-v18
Description: as §1

[5] = target: T5, 391-2-DS-Cav1_ sc9_I395C-A490C
T5 construct: also called DS2-v27
Description: as §1

[6] = target: T6, RB94 sc9 DS-CAV1 A149C-Y458C L373R Long K226L
T6 construct: also called DS2-v24
Description: as §1

[7] = target: T7, 391-2-DS-Cav1_ sc9_S485C-A490C
T7 construct: also called DS2-v28
Description: as §1

[8] = target: T8, RB94 sc9 DS-CAV1 A149C-Y458C L373R
T8 construct: also called DS2-v20
Description: as §1

[9] = target: T9, RB94 sc9 DS-CAV1 A149C-Y458C L373R Long
T9 construct: also called DS2-v22
Description: as §1

[10] = target: T10, 391-2-DS-Cav1_ sc9_T449C-V459C
T10 construct: also called DS2-v31
Description: as §1

[11] = target: T11, RB94 DS-CAV1 T369C-T455C Long
T11 construct: also called DS2-v32
Description: as §1

[12] = target: T12, sc9-10_DS-CAV1_bRSV(RB94)_Fd_fp2_ig1
T12 construct: also called sc-v34
Description: as §1

[13] = target: T13, sc9-10_DS-CAV1_bRSV(RB94)_Fd_hp1_fp1_ig1
T13 construct: also called sc-v8
Description: as §1

[14] = target: T14, sc9-10_DS-CAV1_bRSV(RB94)_Fd_hp1_fp2_ig1
T14 construct: also called sc-v13
Description: as §1

[15] = target: T15, 391-2-DS-Cav1-BZGJ9_gyc7
T15 construct: also called sc-v27
Description: as §1

[16] = target: T16, sc9-10_DS-CAV1_bRSV(RB94)_Fd_pm1_fp2_ig1
T16 construct: also called sc-v24
Description: as §1

[17] = target: T17, sc9-10_DS-CAV1_bRSV(RB94)_Fd_hp1_ig1
T17 construct: also called sc-v2
Description: as §1

[18] = target: T18, RB94 site 0 hRSV DS-Cav1 Long FdPL
T18 construct: also called sc-v22
Description: as §1

[19] = target: T19, sc9-10_DS-CAV1_bRSV(RB94)_Fd_hp2_ig1
T19 construct: also called sc-v3
Description: as §1

[20] = target: T20, sc9-10_DS-CAV1_bRSV(RB94)_Fd_hp2_fp1_ig1
T20 construct: also called sc-v5
Description: as §1

[21] = target: T21, 391-2 hu/bov-DS-Cav1-BZGJ9 Long
T21 construct: also called sc-v18
Description: as §1

[22] = target: T22, 391-2-DS-Cav1-BZGJ9 Long K226L
T22 construct: also called sc-v12
Description: as §1

[23] = target: T23, RB94 site 0 hRSV bovSurf DS-Cav1 Long FdPL
T23 construct: also called sc-v14
Description: as §1

[24] = target: T24, RB94 site 0 hRSV bovSurf DS-Cav1-BZGJ9 Long FdPL
T24 construct: also called sc-v7
Description: as §1

[25] = target: T25, 391-2-DS-Cav1-IP-5
T25 construct: also called sc-v19
Description: as §1

[26] = target: T26, 391-2_DS-Cav1-tzsc5
T26 construct: also called sc-v25
Description: as §1

[27] = target: T27, 391-2wt_F-SC_12R core
T27 construct: also called sc-v28
Description: as §1

[28] = target: T28, 391-2-site 0 hRSV DSCav1-BZGJ9 Long
T28 construct: also called sc-v9
Description: as §1

[29] = target: T29, KXlinker1
T29 construct: also called sc-v30
Description: as §1

[30] = target: T30, sc9-10_DS-CAV1_bRSV(RB94)_Fd_pm1_ig1
T30 construct: also called sc-v11
Description: as §1

[31] = target: T31, 391-2-DS-Cav1-BZGJ9_gyc5
T31 construct: also called sc-v10
Description: as §1

B1: MPE8 antibody (antibody, V domains shown)
VH: EVQLVESGGGLVKPGGSLRLSCAASGFTFSSYSMNWVRQAPGKGLEWVSSISASSSYSDYADSAKGRFTISRDNAKTSLFLQMNSLRAEDTAIYFCARARATGYSSITPYFDIWGQGTLVTVSS
VL: QSVVTQTPSVSGAPGQRVTISCTGSSSNIGAGYDVHWYQQLPGTAPKLLIYDNNNRPSGVPDRFSASKSGTSASLAITGLQAEDEADYYCQSYDRNLSGVFGTGTKVTVL
notes: also called mAb MPE8
[1]
  ELISA binding value: 0.173
[2]
  ELISA binding value: 0.155
[3]
  ELISA binding value: 0.0757
[4]
  ELISA binding value: 0.371
[5]
  ELISA binding value: 0.0919
[6]
  ELISA binding value: 0.0872
[7]
  ELISA binding value: 0.0579
[8]
  ELISA binding value: 0.154
[9]
  ELISA binding value: 0.0692
[10]
  ELISA binding value: 0.1
[11]
  ELISA binding value: 0.0667
[12]
  ELISA binding value: 0.464
[13]
  ELISA binding value: 2.16
[14]
  ELISA binding value: 1.81
[15]
  ELISA binding value: 0.821
[16]
  ELISA binding value: 0.973
[17]
  ELISA binding value: 2.18
[18]
  ELISA binding value: 1.39
[19]
  ELISA binding value: 2.21
[20]
  ELISA binding value: 2.25
[21]
  ELISA binding value: 1.32
[22]
  ELISA binding value: 1.78
[23]
  ELISA binding value: 1.84
[24]
  ELISA binding value: 2.14
[25]
  ELISA binding value: 1.41
[26]
  ELISA binding value: 1.22
[27]
  ELISA binding value: 0.646
[28]
  ELISA binding value: 2.08
[29]
  ELISA binding value: 0.544
[30]
  ELISA binding value: 1.87
[31]
  ELISA binding value: 1.8

B2: D25 antibody (antibody, V domains shown)
VH: QVQLVQSGAEVKKPGSSVMVSCQASGGPLRNYIINWLRQAPGQGPEWMGGIIPVLGTVHYAPKFQGRVTITADESTDTAYIHLISLRSEDTAMYYCATETALVVSTTYLPHYFDNWGQGTLVTVSS
VL: DIQMTQSPSSLSAAVGDRVTITCQASQDIVNYLNWYQQKPGKAPKLLIYVASNLETGVPSRFSGSGSGTDFSLTISSLQPEDVATYYCQQYDNLPLTFGGGTKVEIK
notes: also called mAb D25
[1]
  ELISA binding value: 0.181
[2]
  ELISA binding value: 0.206
[3]
  ELISA binding value: 0.16
[4]
  ELISA binding value: 0.182
[5]
  ELISA binding value: 0.136
[6]
  ELISA binding value: 0.144
[7]
  ELISA binding value: 0.136
[8]
  ELISA binding value: 0.175
[9]
  ELISA binding value: 0.158
[10]
  ELISA binding value: 0.133
[11]
  ELISA binding value: 0.129
[12]
  ELISA binding value: 0.299
[13]
  ELISA binding value: 2.17
[14]
  ELISA binding value: 1.88
[15]
  ELISA binding value: 0.732
[16]
  ELISA binding value: 1.01
[17]
  ELISA binding value: 2.44
[18]
  ELISA binding value: 1.02
[19]
  ELISA binding value: 2.43
[20]
  ELISA binding value: 2.17
[21]
  ELISA binding value: 1.39
[22]
  ELISA binding value: 1.92
[23]
  ELISA binding value: 1.7
[24]
  ELISA binding value: 2.21
[25]
  ELISA binding value: 1.28
[26]
  ELISA binding value: 0.662
[27]
  ELISA binding value: 0.709
[28]
  ELISA binding value: 2.02
[29]
  ELISA binding value: 0.399
[30]
  ELISA binding value: 1.86
[31]
  ELISA binding value: 1.93

Source: patent US20190330277A1 (PIRBRIGHT INSTITUTE, published 2019)
